Experimental data published in PMC10214761.

Biological target: IgG1k from human myeloma plasma (IgG1 MC) (human)
Experiment: SPR

Row | Kd | Substance
1 | 0.309 µM | human Fcγ receptor IIa (hFcγRIIa) (from UniProt P12318 34-217)
2 | 3.36 µM | human Fcγ receptor IIb/c (hFcγRIIb/c) (from UniProt P31994 43-217)
